Test results taken from the supplement of paper PMC9170038.

Test system: K4 kissing-loop RNA reporter
Experiment: apparent KD of K4 kissing-loop reporter; higher = weaker reporter binding
Conditions: Eterna round: R107; input ligand: theophylline 20 uM
Procedure: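 RNA-MaP round R107: designed RNA switches with theophylline, tryptophan, arginine or FMN aptamers are transcribed on-chip within common flanks. They are titrated with a labelled K4 kissing-loop RNA reporter in RNA-MaP buffer (100 mM Tris pH 7.5, 80 mM KCl, 4 mM MgCl2), without ligand or with the indicated ligand. Median apparent KD per design.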
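Also: bound reporter read as fluorescence of individual clusters on recovered sequencing chips by microscopy, with normalized cluster intensities fitted with a binding model.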

Sequence | apparent KD of K4 kissing-loop reporter
UGGACCUGACUCGAUAAGAGUCAAGGAGAUACCAGCCACGAAAGUGGCCCUUGGCAGCUCUGCCAGUGAUGUUGGUCAAGGUCCU [#SwitchBubble 7 #StaticStem] | 393 nM
CAUACGCAUGGAGGAUAUGAGAUUUUUCAUAUUAUUUUUUAUUCUCAGUGAUGUUGGGAUUUAUAAUCAGAAGGCCAUGUGUAUG [Ex FMN B 11] | 94.7 nM
AGUGUUGUAUGGCGGUUUGUCACUUAGGAUCAGGAUAUAUAAACAAAUAGAAGGGAUGGCGGAGUGAUGUUCCGCCGGCCGCCAU [FMN A Exl V7] | 126 nM
GGAUAGGACAGAGGAUAUCUCUGAGGCAAGAAAACUUGUCUCUAAAGAGAUGACUCAGUGAUGUUGGGAGAAGGCUGUCCUAUCG [FmnBX 10 - #SwitchBubble #StaticStem] | 167 nM
GCUGUCCAGUUCGAUACCAGAGUUAUCGCACUGUAGUGAUAAAGUGAUGUUUUAUCAGUCCUCCCUUGGCAGCGAUGCCCGGCUG [theeternabot_exclusion_KL_Theo_B_25] | 165 nM
UUGUAUAGUGGAAGGAGCGCGUGGGCGCAGUGAUGUUGCGCCCGACAUCACUUCAACUUAACGCAGGUAGGUCGCCAUUGUAAUG [Arginine B (Excl) V5] | 104 nM
CCGGCCCGGCCGGAUACCAGUGCGCCGCUGGGAACCGCGGGCCCAGAGUGAUGUUCGGGACACCCUUGGCAGCCGCCUGGGUCGC [#2 Same State - Theophylline B Attempt #24 (HarryS)] | 217 nM
AGCGUCUGAAGAGGAUAUGACCAGUGAUGUUGGUUACUACCUCAAAUUAGUGUCUCGUCAAAAUCGUCAGAAGGCUUCGACGAGC [#09 K4 FMN B Exclusion] | 92.8 nM
CGGAGUGAUGUUCCUUUUAUUAAUUAUUAACGAGGACCGGUACGGCCGCCACUCGAUUUAGCUUUUAUUUAAUGCUUGGAUGUUU [JR_SSTryptoA_Sub003] | 246 nM
CGCGCCCAGCCGGAUACCAGUGACCCGCUGGGAACCGCGGGCCCAGAGUGAUGUUCGGGACACCCUUGGCAGCCGCCUGGGCGAC [#2 Same State - Theophylline B Attempt #8 (HarryS)] | 525 nM
CAUUAAACUCAAACUAUUGGGUUUACGUUCCGAGGACCGGUACGGCCGCCACUCGGUCGAUGCUAUACCAUACGAGUGAUGUUCG [theeternabot_sameState_KL_Trp_A_1] | 404 nM

Same assay, conditions: Eterna round: R107; input ligand: tryptophan 2.4 mM

Sequence | apparent KD of K4 kissing-loop reporter
UGGCGGACGAUCCGGAGUGAUGUUCCGGAUACCAGCAGAAGAGCCUGCCCUUGGCAGCCGUACGACGCUGGGAGAGUCCGGCGUC [Soteina] | 76.9 nM
UGACAUUGCUCAGAUACCAGACAUGAGCAUCAGCCAUGUACCAAGAAAGUACAAUAAAAUGUCCCUUGGCAGCUGAGCAAUGUCU [TheoBX 8] | 48.4 nM
AAUUUUAAUCAUAAAUAAUAAAUAAAUGAUACCAGUAUUUUUUUUUACCCUUGGCAGCGUAUAUAAGGGCAGUGAUGUUGUCAGA [whbob_SS_Theo_A_w60] | 164 nM
UGAUACCAGACUGAUACCAGCCAGUGAUGUUGGCUAAGCCAAAUAGGUGUCAAAGACACCGGCCCUUGGCAGCAGUCUGGUAUCU [TheoBX 2 #SwitchBubble #StaticStem] | 119 nM
GGAGUUACCUGGGAUACCAGUCGGAGACCCAGAGCUCGGAGUGAUGUUCUGGGAUGUUUCGGCCCUUGGCAGCUCUGGGUCUCCC [#2 Exclusion - Theophylline B Attempt #8 (HarryS)] | 675 nM
GAAUGAUAGUAAGGAUAUAGAUAAUCCUUAUAUAUAUCGAGUGAUGUUCGAUGUGGCAAGAUACAUCUAGAAGGUACUGUAAGGU [Same State FMN B GF 16] | 240 nM
CUCCUUGGCUAAGGAUAUCGUAGUGAUGUUAUGGUCUUUGCUAAGACUUCUGAUAUUGAAUUCCGACGAGAAGGUAGAAGGACGG [theeternabot_exclusion_KL_FMN_B_18] | 626 nM
UCUGUUGUAUAUGAUACCAGCAGUGAGAGAUGAGAAGUAUAGUGAUGUUAUAUGAGAGAAUGCCCUUGGCAGCGUGUGCGUGUGG [SSTheophylB.aC] | 76.9 nM
CGCCGUAAGGCGAGCGCUCCCACUCCGGAAGGAGCGCCCGAAAGGGCAGGUAGGUCGCCGGAGUGAUGUUCCGGUGGAGGGCUCG [#2 Exclusion - Arginine A Attempt #28 (Inspired by Omei)] | 330 nM
UCACUCAUGUGAAGGAGCGUGAGAAGACAUGAGUGAUGUUCAUGUCUAGACCAGCGUCUCUCACAGGUAGGUCGCACAUGAAAGG [Arg B SS t10] | 121 nM
AAAAUUGCGGUCGAUAGAACUUUUUGCUUACGAGGACCGGUACGGCCGCCACUCGAGUCAAGUGAUGUUUGAUUUUCUAUUAUUA [JR_ExcTryptoA_Sub014] | 98.5 nM
UUUAACGAGUGAUGUUCGAAAAGUAAUGGUGAGGAUAUCGAUUUUUCGAGAAGGCACCUCGAAGUGAUACGAAAGUAUCGCUUCG [FMN A 4] | 199 nM
CCUUUCUGUUACGAUACCAGUCUAAUAUAUUUGAUCAAUACCCUCGCCGAGUGAUGUUCGGACCCUUGGCAGCGUCUGGGACAGG [aazwmullin] | 451 nM
GGAGGAGAAUAUGAUACCAGCAGAGAGAGAGAGGAAGUAUAGUGAUGUUAUAUGUGAGAAUGCCCUUGGCAGCAUAAGAAGAAGG [whbob_SS_Theo_B_sa87] | 132 nM
CAUAGACAAGUGAUGUUUGUCAUAACCGAAGGAGCGUCUUUAAAGACAGGUAGGUCGCGGAUUAAUUAAGUUAUUAUUCUUUUUA [JR_SSArginiA_Sub018] | 439 nM
UAGUCAUACAGAGGAUAUCGUAUGAGUGAUGUUCAUACGACAUAAUCAAAUUGUAUUGAUGUUCGACGAGAAGGCUGUAUGACUA [FMN B Ex t1] | 124 nM
GUGUAACGAGGAAACCUCGUUACACCCUCACGAGGACCGGUACGGCCGCCACUCGAGAGCUCGUGAGGAGUGAUGUUCCUCGUGA | 184 nM
GGGAGUAGUGCGGCCGCCACUGAGAAAGAAGAAGAAUAUAGUGAUGUUAUAUAGGAAAGGAAGAAUAGGACCGGGCAUUAGAUUU [SSTRyptB.J] | 257 nM
CCGGCCCAGCCGGAUACCAGUGCGCCGCAGGGAACGGCGGGCCCAGAGUGAUGUUCGGGACACCCUUGGCAGCCGCCUGGGUCCU [#2 Same State - Theophylline B Attempt #29 (HarryS)] | 864 nM
GCUAUGGUUGGAAGGAGCGUUGAAUUGUUGGUAAGAGUGAUGUUCGAUAGUGGAUAGUUGUAGCAGGUAGGUCGCCAACUAUAGC [KL-Arg B27] | 395 nM
ACAGUCGGCUGUGAUACCAGUCGUAUUACAACAUGUUGCAGUGAUGUUGCGAGAUAGGAUGACCCUUGGCAGCACUCAGUACGAU [Same State Theophylline B GF9] | 144 nM

Sequence | apparent KD of K4 kissing-loop reporter
UGAUACCAGACGGCCGCCACUACACCAGUCAAAGACUGGAUGUGAAAUUCGACCAGUGAUGUUGGUAGGACCGGGUCUGGUAUCU [TrypBX 8 #SwitchBubble #StaticStem] | 591 nM
AUUUAGACGAGUGAUGUUCGUGAUUUUUCAGAGGAUAUGCGUAAUAGCAGAAGGCUGUAUUUAUAUAUAUUUUGAUUUUUUUAAA [JR_ExcFMNA_Sub009] | 62.3 nM
CUGUCAUGGGAUGGGCCAGUGAUGUUGGGCCGAGGACCGGUACGGCCGCCACUCGUAGCACAGUGCGCGCUAGCAUUGUACGUCA [theeternabot_exclusion_KL_Trp_A_35] | 456 nM
AAUAAAAGAUGUUUAGGAAAGAAAAUGGAAGGAGCGUGCGAAAGCACAGGUAGGUCGCCAGUGAUGUUGGAACCUGAGCAUCAAA [#SwitchBubble 15 #K4Late] | 436 nM
GUCGGCCGCGCGCAAGCGCGGCCGGCCGAUACCAGCGCGCCGGCGCGCCCUUGGCAGCGGCGCCGAGUGAUGUUCGGCCUGACGU [#2 Same State - Theophylline A Attempt #7 (HarryS)] | 917 nM
AACACUCAGAGAGUGAUGUUCUCUAAUAAACGAGGACCGGUACGGCCGCCACUCGAAUAAGAGUGAGUCCUACGAAAAGUAGGAC [Omei inspired 5 #OpenEnded] | 224 nM
UCCUUUGUUGCCAGUGAUGUUGGACAGGAAGGAGCGGGCAUAAGCCCAGGUAGGUCGCCUGUCAACUUUCUUAUAGCCCGAAGGU [KL-XArg-A19] | 370 nM
UGUAUGUGAUUUGAUACCAGACCAGCUGGUGUUUCAAGAGUGAUGUUCUUGUAGGUUUGGGUCCCUUGGCAGCAAAUCGCAUACU [KL-SSTheoB15] | 131 nM
CUGACGAUGACACGGUGGCCGCUGGUCGUGCGAGGACCGGUACGGCCGCCACUCGCAUGAGUGAUGUUCAUGUGUCGUCGUCGUC [#08 K4 Tryptophan A Exclusion] | 118 nM
UACUUAUAUUUCAACUUAAAUUAUUCAGAAGGAGCGUGAUCAUUCACAGGUAGGUCGCUGAACUAGUGAUGUUAGUUUUAAUUUU [JR_Nu_ExcArginiA_Sub022] | 62.2 nM
UGGACCUGACUCGAUAAGAGUCAAGGAGAUACCAGCCACGAAAGUGGCCCUUGGCAGCUCUGCCAGUGAUGUUGGUCAAGGUCCU [#SwitchBubble 7 #StaticStem] | 776 nM
CAUACGCAUGGAGGAUAUGAGAUUUUUCAUAUUAUUUUUUAUUCUCAGUGAUGUUGGGAUUUAUAAUCAGAAGGCCAUGUGUAUG [Ex FMN B 11] | 88.9 nM
AGUGUUGUAUGGCGGUUUGUCACUUAGGAUCAGGAUAUAUAAACAAAUAGAAGGGAUGGCGGAGUGAUGUUCCGCCGGCCGCCAU [FMN A Exl V7] | 121 nM
GGAUAGGACAGAGGAUAUCUCUGAGGCAAGAAAACUUGUCUCUAAAGAGAUGACUCAGUGAUGUUGGGAGAAGGCUGUCCUAUCG [FmnBX 10 - #SwitchBubble #StaticStem] | 125 nM
GCUGUCCAGUUCGAUACCAGAGUUAUCGCACUGUAGUGAUAAAGUGAUGUUUUAUCAGUCCUCCCUUGGCAGCGAUGCCCGGCUG [theeternabot_exclusion_KL_Theo_B_25] | 154 nM
UUGUAUAGUGGAAGGAGCGCGUGGGCGCAGUGAUGUUGCGCCCGACAUCACUUCAACUUAACGCAGGUAGGUCGCCAUUGUAAUG [Arginine B (Excl) V5] | 101 nM
CCGGCCCGGCCGGAUACCAGUGCGCCGCUGGGAACCGCGGGCCCAGAGUGAUGUUCGGGACACCCUUGGCAGCCGCCUGGGUCGC [#2 Same State - Theophylline B Attempt #24 (HarryS)] | 240 nM
AGCGUCUGAAGAGGAUAUGACCAGUGAUGUUGGUUACUACCUCAAAUUAGUGUCUCGUCAAAAUCGUCAGAAGGCUUCGACGAGC [#09 K4 FMN B Exclusion] | 91.2 nM
CGGAGUGAUGUUCCUUUUAUUAAUUAUUAACGAGGACCGGUACGGCCGCCACUCGAUUUAGCUUUUAUUUAAUGCUUGGAUGUUU [JR_SSTryptoA_Sub003] | 77 nM
CGCGCCCAGCCGGAUACCAGUGACCCGCUGGGAACCGCGGGCCCAGAGUGAUGUUCGGGACACCCUUGGCAGCCGCCUGGGCGAC [#2 Same State - Theophylline B Attempt #8 (HarryS)] | 509 nM
CAUUAAACUCAAACUAUUGGGUUUACGUUCCGAGGACCGGUACGGCCGCCACUCGGUCGAUGCUAUACCAUACGAGUGAUGUUCG [theeternabot_sameState_KL_Trp_A_1] | 352 nM
